Data on one molecule can be found in doi:10.1101/2021.01.05.425367 (bioRxiv, 2021).

The assay addresses T1, LolB-Strep (E. coli, UniProt P61320 22-207).
T1 sequence (looked up): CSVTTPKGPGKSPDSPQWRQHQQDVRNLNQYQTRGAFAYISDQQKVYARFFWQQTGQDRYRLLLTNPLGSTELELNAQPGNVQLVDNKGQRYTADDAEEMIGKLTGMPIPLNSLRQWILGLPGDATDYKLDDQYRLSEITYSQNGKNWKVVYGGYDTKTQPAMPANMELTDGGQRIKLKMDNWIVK
The experiment in a line: pull-down.

B1: wild-type RcsF (natural protein, E. coli, UniProt P69411 16-134, looked up)
chain: CSMLSRSPVEPVQSTAPQPKAEPAKPKAPRATPVRIYTNAEELVGKPFRDLGEVSGDSCQASNQDSPPSIPTARKRMQINASKMKANAVLLHSCEVTSGTPGCYRQAVCIGSALNITAK
modifications: acylated (lipidated) N-terminal cysteine, the first residue of the mature lipoprotein
In the case of B1, the binding result is on record as “binds”.
